Laboratory results published in paper PMC4105854.

Tested on: DNA gyrase
Experiment: single-molecule T7 transcription elongation rate titrated with gyrase
Settings: multiple biotin (topologically constrained); not given in the held text

nuoB-N template with multiple biotins (~12 kb)
Kd: 0.1 µM
